According to PMC10194908 (PLOS ONE, 2023):

Experiments:
[1] = molecular target: T1, Recombinant NS1 from DENV-4-Dominica/814669/1981 (dengue virus serotype 4 …, UniProt P09866); experiment: BLI; conditions: both partners purified
T1 construct: also called DENV-4 NS1

[2] = molecular target: T2, Recombinant NS1 from DENV-3-Sri Lanka D3/H/IMTSSA-SRI/2000/1266 (dengue virus serotype 3 (Sri Lanka …, UniProt Q6YMS4)); experiment: immunoblot; conditions: both partners purified
T2 construct: also called DENV-3 NS1

[3] = molecular target: T1, Recombinant NS1 from …; experiment: immunoblot; conditions: both partners purified
Target sequence in this assay (P09866 775-1126): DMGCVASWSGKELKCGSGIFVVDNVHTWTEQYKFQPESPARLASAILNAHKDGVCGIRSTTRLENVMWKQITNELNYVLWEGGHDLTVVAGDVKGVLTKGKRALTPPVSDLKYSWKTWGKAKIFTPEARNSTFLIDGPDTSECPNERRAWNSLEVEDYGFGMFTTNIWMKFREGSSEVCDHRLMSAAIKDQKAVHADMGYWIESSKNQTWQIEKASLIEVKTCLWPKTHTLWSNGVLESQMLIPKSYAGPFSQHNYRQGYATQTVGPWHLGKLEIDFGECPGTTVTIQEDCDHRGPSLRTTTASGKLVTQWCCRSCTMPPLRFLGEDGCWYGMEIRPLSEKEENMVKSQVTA

[4] = molecular target: NS1 secreted from Vero cells infected with DENV-2-TSV01 (Dengue virus type 2, strain TSV01 …, UniProt Q91H74, strain); experiment: ELISA; conditions: one partner purified
[5] = molecular target: NS1 secreted from Vero cells infected with DENV-2-D2Y98P (Dengue virus type 2, strain D2Y98P …, UniProt F8TRW4, strain); experiment: ELISA; conditions: one partner purified
[6] = molecular target: NS1 secreted from Vero cells infected with DENV-3-VN32/96 (Dengue virus 3, strain VN32/96 (paper: …, strain)); experiment: ELISA; conditions: one partner purified
[7] = molecular target: NS1 secreted from Vero cells infected with DENV-3-CHD94-089 (Dengue virus 3, strain CHD94-089 …, strain); experiment: ELISA; conditions: one partner purified
[8] = molecular target: NS1 secreted from Vero cells infected with DENV-4-2641Y08 (Dengue virus type 4, strain 2641Y08 …, UniProt F8TEL4, strain); experiment: ELISA; conditions: one partner purified
[9] = molecular target: NS1 secreted from Vero cells infected with DENV-4-TVP360 (Dengue virus type 4, strain TVP360 …, UniProt D2KQW6, strain); experiment: ELISA; conditions: one partner purified
[10] = molecular target: T2, Recombinant NS1 from DENV-3-Sri Lanka …; experiment: ELISA; conditions: both partners purified

Measured: binding result

T2 sequence (Q6YMS4 774-1125): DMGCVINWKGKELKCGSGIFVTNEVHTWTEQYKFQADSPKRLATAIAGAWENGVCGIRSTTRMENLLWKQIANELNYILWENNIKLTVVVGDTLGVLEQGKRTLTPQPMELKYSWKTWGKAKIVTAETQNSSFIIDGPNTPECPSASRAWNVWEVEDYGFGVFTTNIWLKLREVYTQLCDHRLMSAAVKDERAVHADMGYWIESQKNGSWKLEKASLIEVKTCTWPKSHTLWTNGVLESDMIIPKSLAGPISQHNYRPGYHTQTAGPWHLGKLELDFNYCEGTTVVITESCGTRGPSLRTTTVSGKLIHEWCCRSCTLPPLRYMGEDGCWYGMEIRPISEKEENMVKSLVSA

B1: A2 (antibody, V domains shown)
VH: QVQLQESGGGVVQPGRSLRLFCAASGFTFSAFSTYAIHWVRQAPGKGLEWVAVISYDANNKYYADSVKGRFTISRDNFKSTLFLQMNSLRAEDTAVYYCARDRSDSGYDSYYYYYGMDVWGQGTTVTVSS
VL: QSVVTQPPSVSAAPGQKVTISCSGSSSNIGRNYVSWYQHLPGTAPKLLIYDNNKRRSGIPDRFSGSKSDTTATLGITGLQTVDEADYYCGSWDNSLSAYVFGTGTKVTV
notes: also called A2-HRP
binds: [1] | [2]

B2: D6 (antibody, V domains shown)
VH: EVQLVQSGGGLVQPGRSLRLSCAASGFTFQDYAMHWVRQAPGKGLEWVSGIGRDSGTIDYADSVKGRFTISRDNAKNSLYLQMNSLRAEDTALYYCAKISNGYRPDNWGQGTLVTVSS
VL: VLTQPPSVSVSPGQTARITCSGDVLAKRYARWFQQKPGQAPVVVIYKDSERPSGIPERLSGSSSGTTVTLTISGAQVEDEADYYCYCAADNNVVFGGGTKLTVL
notes: also called D6-HRP; HRP-D6
binds: [3]

B3: D8 (antibody, V domains shown)
VH: QVQLQESGPGLVKPSETLPLTCTVSGGSISNNGFYWGWIRQPPGKGLEWIGNIYYRGSTYYNPSLNSRVTISVDTSKNQFSLQLNSVTAADTAVYYCARLGIQLWFAIDYWGQGTLVTVSS
VL: SVLTQPPAVSVALGQTVRITCQGDSLRSSYASWYQQKPGQAPVLIFYAKNNRPSGIPDRFSGSSSGNTASLTITGAQAEDEADYYCYSRDSSGNLWVFGGGTKLTVL
notes: also called D8-HRP; HRP-D8
binds: [4] | [5] | [6] | [7] | [8] | [9] | [10]
